According to article PMC3617236:

Experiments:
[1] = biological target: recombinant His-tagged Wolbachia surface protein wBm0152 (Wolbachia endosymbiont of B. malayi (wBm)); experiment: ELISA
[2] = biological target: recombinant His-tagged B. malayi fructose-bisphosphate aldolase (B. malayi); experiment: far-Western, overlay or dot blot; His-Bm-aldolase (3 µg per lane) run on SDS-PAGE and blotted on nitrocellulose; strips incubated with 1, 2, 5 or 10 µg/ml His-wBm0432 in overlay buffer, 3 h, room temperature; signals quantified with GeneSnap

Substance | Kd [1] | Kd [2]
purified bovine actin (from UniProt P68138 1-377) (natural protein) | 570 nM | –
recombinant His-tagged Wolbachia surface protein wBm0432 (natural protein) | – | 510 nM
